Measured values reported in the supplement of paper PMC10567573.
± gives the standard deviation.

Assay: protein stability index of a GFP-peptide fusion (GPS, HEK-293T) (PSI 1-6); higher = more stable
[1] = treatment: DMSO, c terminus: a fixed tail appended
[2] = treatment: MLN4924 1 uM, 8 h, c terminus: a fixed tail appended
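Note: 24-mer peptide tiles fused after GFP, lentivirally expressed, FACS-sorted into six equal bins by GFP/DsRed ratio, decoded by Illumina sequencing, PSI is the read-weighted mean bin number.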

Sequence	protein stability index [1]	protein stability index [2]	protein stability index (treatment: DMSO, c terminus: native)	protein stability index (treatment: MLN4924 1 uM, 8 h, c terminus: native)
DQKVPYIFRDNQWVGFDDVESFKT [CHIT1]	3.67 ± 0.18	3.53 ± 0.28	–	–
AAAYSPSEALLYALVHDHQAYAHY [ANKRD9]	2.05 ± 0.14	2.27 ± 0.28	–	–
WQYLSGGKVKLQQNPGKFDELDMS [TBC1D10A]	3.16 ± 0.32	3.35 ± 0.26	–	–
KLIDRLEKKDLKLEPPEEEIIEGN [NECAB1]	4.88 ± 0.32	4.8 ± 0.19	–	–
VNIEWHRFRFGQDQLLLATGLNNG [WSB1]	2.76 ± 0.41	2.58 ± 0.45	–	–
SLVRDTIARVHGTFGAAACSIGFA [POP5]	2.31 ± 0.38	2.48 ± 0.22	–	–
HERGLKLHQTIYNQACKLLSDDYE [INTS4]	3.18 ± 0.32	3.47 ± 0.47	–	–
RLSSRYRYGQLIEINSHSLFSKWF [TRIP13]	2.12 ± 0.28	2.04 ± 0.38	–	–
NSHFSLNVKTLKDGKPFPELVLEQ [PCDHGC5]	3.42 ± 0.18	3.76 ± 0.27	–	–
CSRFFIDFPDILEQQRKLETYLQN [TENT5C]	2.17 ± 0.22	2.24 ± 0.12	–	–
WEWSPAGLQSYQQALLRISLDKVQ [SERTAD3]	2.48 ± 0.58	2.49 ± 0.69	–	–
AALSERGQAEEELIKAKSQARLEE [LRRC45]	5.28 ± 0.55	5.39 ± 0.46	–	–
RVRTVLNEKQLHTLRTCYAANPRP [ISL2]	2.74 ± 0.27	2.96 ± 0.2	–	–
GLQHAPEPDAADGPYDPNSVRISF [SMAD6]	4.24 ± 0.38	4.49 ± 0.27	–	–
TILDIFRFALRFIRPDPRSRVTDP [FAF2]	2.75 ± 0.48	2.75 ± 0.099	–	–
IQDGTIHLYIYSIHSIPKGTEITI [KMT2E]	2.48 ± 0.43	3.24 ± 0.15	–	–
SIGLRDYAGNLHESGVHGALLALD [PPFIA4]	3.48 ± 0.11	3.73 ± 0.45	–	–
NSRFQMLFTSFQEPPCEGNTFFCH [NETO1]	2.23 ± 0.45	2.23 ± 0.11	–	–
GDLIEITDAKKREALYAQDPSTGC [KMT5A]	5 ± 0.24	4.86 ± 0.33	–	–
RRRPRQKEAGLSQSHDDLSNATAT [C2CD2L]	5.23 ± 0.19	5.26 ± 0.24	–	–
PAEGEGRLGRCMRRLRDMVERPHS [KCNG1]	4.17 ± 0.14	4.11 ± 0.35	–	–
KTRRKTSARDASPTPSTDAEYPAN [NCK2]	5.31 ± 0.21	5.45 ± 0.17	–	–
MQNGAGASRTSTIFLNGNRERPLN [TNXB]	3.7 ± 0.49	4.06 ± 0.2	–	–

Sequence	protein stability index [1]	protein stability index [2]	protein stability index (treatment: DMSO, c terminus: native)	protein stability index (treatment: MLN4924 1 uM, 8 h, c terminus: native)
LSSAPSSRAEPIRTTVFQYPVGWP [ZMAT5]	2.86 ± 0.22	2.94 ± 0.19	–	–
RLFTVNDVKVGGSKYGIINLQSLK [DCAF4]	2.14 ± 0.14	2.27 ± 0.37	–	–
VSPRRIFANGHTYHINSISVNSDC [PPP2R2C]	2.67 ± 0.27	2.87 ± 0.19	–	–
MHKHNETSQKIAARAFAQRYLADL [RSPH3]	2.63 ± 0.094	2.84 ± 0.22	–	–
QNAALRGELSQARGQEPARADQLC [PRPH]	5.12 ± 0.23	5.02 ± 0.37	–	–
YDSQPQDVLGIRQLERPLPLTSVC [TRAF3IP2]	3.68 ± 0.065	3.74 ± 0.23	–	–
QTEELKYSIDQEFLKEYFPIEVVT [NLN]	3.23 ± 0.37	3.49 ± 0.29	–	–
IHKASATIIEPAGESDNPLRFTSG [INTS4]	4.03 ± 0.33	4.15 ± 0.25	–	–
QQYRQDQRDGSKSEDELDQASTPT [CCND2]	5.45 ± 0.2	5.39 ± 0.12	–	–
LPPSPPPSPASEQTVTVEEAAGGE [MAP2]	5.4 ± 0.27	5.51 ± 0.16	–	–
QPPRFPVPHNGSSEATLPAQMSTL [PDLIM4]	4.67 ± 0.19	4.83 ± 0.089	–	–
KAALAALCPGDLIQAINGESTELM [PDLIM4]	3.495 ± 0.025	3.77 ± 0.21	–	–
LEPPTMRKKRLLDRKVLLKSDSPT [GOLPH3L]	4.38 ± 0.21	4.54 ± 0.17	–	–
ATRGVPAKRLLDADDAAAVAAKCP [TRIB1]	4.39 ± 1.5	–	–	–
SCTPRMNRRMVGPDVIPLPHIYGA [FAM189A2]	2.23 ± 0.22	2.27 ± 0.2	–	–
GTTEAATQDGKEQPELPCAMAMGT [PXN]	5.48 ± 0.13	5.45 ± 0.22	–	–
ALVRWWNGIGAVLDFTHPKARDWF [MYORG]	2.59 ± 0.52	2.3 ± 0.51	–	–
RAAQLQHSEKMAQYLEEERHMREE [CCDC6]	5.15 ± 0.25	5 ± 0.46	–	–
SVYVKLAGEREDLWAGSKGKEFGY [MIA2]	2.52 ± 0.23	2.85 ± 0.15	–	–
IDPETKKHIPYREHKSLTGTARYM [CSNK1G3]	3.38 ± 0.45	3.72 ± 0.18	–	–
IGDSRPPSFHPHAGGGSQENLDND [DVL3]	5.56 ± 0.18	5.41 ± 0.1	–	–
SHSCYHDTRSGFWYVCRTQGVEGD [TRIM35]	2.52 ± 0.27	2.36 ± 0.29	–	–
SESNSATVEEPPTDPIPEDEKKE [SMARCE1]	–	–	5.58 ± 0.47	5.41 ± 0.1

Sequence	protein stability index [1]	protein stability index [2]	protein stability index (treatment: DMSO, c terminus: native)	protein stability index (treatment: MLN4924 1 uM, 8 h, c terminus: native)
GVSPADMYRWKLSSHEPCSATCTT [ADAMTSL2]	2.98 ± 0.33	3.37 ± 0.63	–	–
PAGFRVSTLGTLQPPPAPPKKIMP [PPFIA4]	4.14 ± 0.42	4.07 ± 0.43	–	–
QMQDDEQKTRLLEDSVSRLEKEIE [PALM]	5.11 ± 0.15	4.97 ± 0.1	–	–
CMGAMSLFLPCLLCYPPAKGCLKL [SPRY1]	2.8 ± 0.56	3.04 ± 0.83	–	–
CRDLVDEAKNYLLLPQERPLMQGP [KLHL20]	2.65 ± 0.33	2.75 ± 0.12	–	–
QQLHQLPRGRLDLATQSLTVETCR [LRRC45]	4.04 ± 0.23	3.9 ± 0.32	–	–
KCEQPFFWNIKQMWDTKTLGLRQH [WDFY1]	2.12 ± 0.17	2.38 ± 0.27	–	–
IDGQGRPRTSQSEETRVWHRRDGK [CAMK2B]	5.2 ± 0.2	5.24 ± 0.11	–	–
CMFCLYSFMPLVIKVTSATSVNLG [SLC35F2]	2.91 ± 0.72	2.73 ± 0.41	–	–
EKLITWLNKELNENQLVRKQDVLG [SASS6]	2.12 ± 0.44	3.1 ± 0.26	–	–
GAGAVSRTCTAPLDRLKVLMQVHA [SLC25A25]	2.32 ± 0.48	2.41 ± 0.14	–	–
IDSGSPAEEAGLKNNDLVVAVNGE [PDZK1]	5.45 ± 0.48	5.58 ± 0.2	–	–
MDVPGPVSRRAAAAAATVLLRTAR [SLC19A2]	3.29 ± 0.23	3.42 ± 0.089	–	–
QPPSCQGEAAGSSLIGHLQTLSPD [DUSP5]	4.76 ± 0.14	4.69 ± 0.13	–	–
QPSGMKEGVKRYEQEHAAIQDKLF [CHCHD6]	4.55 ± 0.12	4.14 ± 0.21	–	–
ATKFKQLYRSRMNSLEMTPAVRQR [HMOX1]	3.32 ± 0.21	3.56 ± 0.27	–	–
MSQALKATFSGFKKEQRRLGIPKN [ETS2]	2.98 ± 0.29	3.08 ± 0.3	–	–
APSPSPVTPAQNNLLQPNFEAAFG [SNAP91]	4.43 ± 0.089	4.54 ± 0.38	–	–
YQDMIYAVGGRDDTTELSSAERYN [KLHL20]	2.91 ± 0.66	3.52 ± 0.51	–	–
VQRSPWLMMRMGILGRGLQEYQLP [TCAP]	2.3 ± 0.17	2.21 ± 0.48	–	–
TAYWALAGSIGGLFFAVGIAQYAL [SLC22A15]	3.06 ± 0.15	2.89 ± 0.18	–	–
LMSAQTITSETTSTTTTTHITKTV [EPB41L3]	4.5 ± 0.26	4.68 ± 0.14	–	–
VQDKTPLYSQLLQAYKWSNKLQYH [MED27]	2.18 ± 0.27	2.19 ± 0.25	–	–

Sequence	protein stability index [1]	protein stability index [2]	protein stability index (treatment: DMSO, c terminus: native)	protein stability index (treatment: MLN4924 1 uM, 8 h, c terminus: native)
AQRQACMYASSAPPSEPVPSLEDI [TBX5]	4.92 ± 0.14	4.96 ± 0.077	–	–
LGCALLAAHAVVLCALPVHVAVEH [SOAT2]	3.43 ± 0.35	3.09 ± 0.51	–	–
VRFLEQQNAALRGELSQARGQEPA [PRPH]	4.57 ± 0.27	4.41 ± 0.18	–	–
DFRVKYETELAMRQSVENDIHGLR [KRT18]	3.56 ± 0.2	3.68 ± 0.1	–	–
PTARHFQEHPRQQLATSSFLLFLL [MOSPD3]	2.2 ± 0.24	2.23 ± 0.4	–	–
LGRSHDTVQEAATSRRARASKKTA [MFSD9]	5.2 ± 0.21	5.31 ± 0.16	–	–
SKAKKLVCNINKGCGYGCQLHHVV [FUT8]	2.71 ± 0.43	2.19 ± 0.4	–	–
ICDKHWTAKNSRVVCGMFGFPGER [LOXL2]	2.42 ± 0.34	2.42 ± 0.35	–	–
DLMETTQYMNEGELRVLADTYDSV [HDAC6]	2.69 ± 0.52	3.58 ± 0.51	–	–
HTETKTITYESSQVDPGTDLEPGV [EPB41L3]	5.48 ± 0.17	5.37 ± 0.25	–	–
AYNHRTDLFKSFPGPMDWVPRYTG [ADAMTS4]	2.89 ± 0.14	2.82 ± 0.11	–	–
VGRLYAVYDQAVSIFYDLPQGSGF [SMAD6]	2.54 ± 0.47	2.39 ± 0.65	–	–
SFCHGSSLKRHLKTHTGEKPHRCH [ZNF449]	3.45 ± 0.27	3.61 ± 0.34	–	–
GASVRGLHPVQKVILNYPSPWDQE [TRAF3IP2]	3.79 ± 0.33	4.1 ± 0.36	–	–
GGKSGGIVISPFRLEELTNRLASL [CCDC6]	2.58 ± 0.33	2.69 ± 0.22	–	–
AGEFTGWEKVGSGGFGQVYKVRHV [RIPK4]	2.46 ± 0.61	2.25 ± 0.29	–	–
RGQCLLYNWEEERATNHLDQVPSM [SPAG8]	3.13 ± 0.16	3.58 ± 0.42	–	–
KAVLENALRNFACLTTGDVIAINY [UFD1]	2.94 ± 1.7	2.3 ± 1	–	–
TRIHILPSMNPDGYEVAAAQGPNK [CPN1]	4.13 ± 0.25	4.06 ± 0.27	–	–
QAGPSPAPPTPPEEEDLRRRLKYF [MCOLN1]	4.91 ± 0.14	4.99 ± 0.17	–	–
